Measured values taken from IntAct's records for PubMed 16977320.

B1: Ephrin type-A receptor 2 (Mus musculus), Q03145 (parent)
chain: MELRAVGFCLALLWGCALAAAAAQGKEVVLLDFAAMKGELGWLTHPYGKGWDLMQNIMDDMPIYMYSVCNVVSGDQDNWLRTNWVYREEAERIFIELKFTVRDCNSFPGGASSCKETFNLYYAESDVDYGTNFQKRQFTKIDTIAPDEITVSSDFEARNVKLNVEERMVGPLTRKGFYLAFQDIGACVALLSVRVYYKKCPEMLQSLARFPETIAVAVSDTQPLATVAGTCVDHAVVPYGGEGPLMHCTVDGEWLVPIGQCLCQEGYEKVEDACRACSPGFFKSEASESPCLECPEHTLPSTEGATSCQCEEGYFRAPEDPLSMSCTRPPSAPNYLTAIGMGAKVELRWTAPKDTGGRQDIVYSVTCEQCWPESGECGPCEASVRYSEPPHALTRTSVTVSDLEPHMNYTFAVEARNGVSGLVTSRSFRTASVSINQTEPPKVRLEDRSTTSLSVTWSIPVSQQSRVWKYEVTYRKKGDANSYNVRRTEGFSVTLDDLAPDTTYLVQVQALTQEGQGAGSKVHEFQTLSTEGSANMAVIGGVAVGVVLLLVLAGVGLFIHRRRRNLRARQSSEDVRFSKSEQLKPLKTYVDPHTYEDPNQAVLKFTTEIHPSCVARQKVIGAGEFGEVYKGTLKASSGKKEIPVAIKTLKAGYTEKQRVDFLSEASIMGQFSHHNIIRLEGVVSKYKPMMIITEYMENGALDKFLREKDGEFSVLQLVGMLRGIASGMKYLANMNYVHRDLAARNILVNSNLVCKVSDFGLSRVLEDDPEATYTTSGGKIPIRWTAPEAISYRKFTSASDVWSYGIVMWEVMTYGERPYWELSNHEVMKAINDGFRLPTPMDCPSAIYQLMMQCWQQERSRRPKFADIVSILDKLIRAPDSLKTLADFDPRVSIRLPSTSGSEGVPFRTVSEWLESIKMQQYTEHFMVAGYTAIEKVVQMSNEDIKRIGVRLPGHQKRIAYSLLGLKDQVNTVGIPI

Variants of: B1
Conditions: with epha4_mouse Epha4, Q03137
epha4_mouse Epha4, Q03137, sequence (Q03137 whole entry): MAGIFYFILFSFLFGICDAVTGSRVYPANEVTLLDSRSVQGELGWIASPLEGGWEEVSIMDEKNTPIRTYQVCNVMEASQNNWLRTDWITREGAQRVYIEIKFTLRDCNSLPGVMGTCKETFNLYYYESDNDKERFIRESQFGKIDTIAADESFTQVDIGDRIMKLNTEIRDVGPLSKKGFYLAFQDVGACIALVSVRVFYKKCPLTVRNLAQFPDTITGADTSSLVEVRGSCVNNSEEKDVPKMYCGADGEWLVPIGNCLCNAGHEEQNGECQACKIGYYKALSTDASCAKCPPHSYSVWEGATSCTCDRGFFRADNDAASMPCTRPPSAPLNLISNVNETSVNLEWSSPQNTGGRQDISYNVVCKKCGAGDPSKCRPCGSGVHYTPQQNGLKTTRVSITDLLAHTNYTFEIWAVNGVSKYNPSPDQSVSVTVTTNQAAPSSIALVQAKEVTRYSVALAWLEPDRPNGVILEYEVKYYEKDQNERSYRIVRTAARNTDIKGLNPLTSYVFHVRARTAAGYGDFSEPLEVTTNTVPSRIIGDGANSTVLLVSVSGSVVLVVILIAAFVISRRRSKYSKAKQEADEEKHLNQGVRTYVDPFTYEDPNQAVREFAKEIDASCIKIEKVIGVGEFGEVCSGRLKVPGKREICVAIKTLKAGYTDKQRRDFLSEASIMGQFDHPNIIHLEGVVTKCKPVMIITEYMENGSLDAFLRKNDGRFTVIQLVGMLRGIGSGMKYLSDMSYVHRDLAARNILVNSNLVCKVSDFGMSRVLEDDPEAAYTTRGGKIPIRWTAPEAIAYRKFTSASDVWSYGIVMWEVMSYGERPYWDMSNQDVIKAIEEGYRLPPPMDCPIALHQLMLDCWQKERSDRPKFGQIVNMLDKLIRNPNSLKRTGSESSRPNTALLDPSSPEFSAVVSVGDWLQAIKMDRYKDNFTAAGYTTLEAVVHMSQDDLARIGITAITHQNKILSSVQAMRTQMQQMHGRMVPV

Variant	effect of a mutation on the interaction
Y595F	disrupting interaction

Variants of: B1
Conditions: with epha4_mouse Epha4, Q03137
Remark: another data set of the same source

Variant	effect of a mutation on the interaction
Y589F	disrupting interaction
